Laboratory results: article PMC5568139, “Variants of sequence family B Thermococcus kodakaraensis DNA polymerase with increased mismatch extension selectivity” (PLoS ONE, 2017)

Substrate: Nc1nc2c(ncn2[C@H]2C[C@H](O)[C@@H](COP(=O)(O)OP(=O)(O)OP(=O)(O)O)O2)c(=O)[nH]1
Assay: purified protein
Type: biochemical, Thermococcus kodakarensis
Conditions: matched primer-template C-G (prothrombin factor II), Tris-HCl pH 8, 1.5 mM MgCl2, temperature not stated for kinetics (55 °C in primer extension assay)

Protein | Km [µM] | kcat [s⁻¹] | kcat/Km [M⁻¹ s⁻¹]
KOD pol wildtype (3'-5'-exonuclease deficient Thermococcus kodakaraensis DNA polymerase) (Thermococcus kodakarensis KOD1; D141A/E143A) (protein, mature intein-free polymerase expected (precursor holds two inteins); pET21a, E. coli BL21(DE3), Ni resin) chain 1: MILDTDYITEDGKPVIRIFKKENGEFKIEYDRTFEPYFYALLKDDSAIEEVKKITAERHGTVVTVKRVEKVQKKFLGRPVEVWKLYFTHPQDVPAIRDKIREHPAVIDIYEYDIPFAKRYLIDKGLVPMEGDEELKMLAFAIATLYHEGEEFAEGPILMISYADEEGARVITWKNVDLPYVDVVSTEREMIKRFLRVVKEKDPDVLITYNGDNFDFAYLKKRCEKLGINFALGRDGSEPKIQRMGDRFAVEVKGRIHFDLYPVIRRTINLPTYTLEAVYEAVFGQPKEKVYAEEITTAWETGENLERVARYSMEDAKVTYELGKEFLPMEAQLSRLIGQSLWDVSRSSTGNLVEWFLLRKAYERNELAPNKPDEKELARRRQSYEGGYVKEPERGLWENIVYLDFR chain 2: SLYPSIIITHNVSPDTLNREGCKEYDVAPQVGHRFCKDFPGFIPSLLGDLLEERQKIKKKMKATIDPIERKLLDYRQRAIKILAN chain 3: SYYGYYGYARARWYCKECAESVTAWGREYITMTIKEIEEKYGFKVIYSDTDGFFATIPGADAETVKKKAMEFLKYINAKLPGALELEYEGFYKRGFFVTKKKYAVIDEEGKITTRGLEIVRRDWSEIAKETQARVLEALLKDGDVEKAVRIVKEVTEKLSKYEVPPEKLVIHEQITRDLKDYKATGPHVAVAKRLAARGVKIRPGTVISYIVLKGSGRIGDRAIPFDEFDPTKHKYDAEYYIENQVLPAVERILRAFGYRKEDLRYQKTRQVGLSAWLKPKGT | 0.168 ± 0.04 | 0.81 ± 0.12 | 4.8e+06 ± 1.9e+06
KOD pol wildtype (3'-5'-exonuclease deficient Thermococcus kodakaraensis DNA polymerase) (Thermococcus kodakarensis KOD1; D141A/E143A/R1398C) (protein, mature intein-free polymerase expected (precursor holds two inteins); pET21a, E. coli BL21(DE3), Ni resin) chain 1: MILDTDYITEDGKPVIRIFKKENGEFKIEYDRTFEPYFYALLKDDSAIEEVKKITAERHGTVVTVKRVEKVQKKFLGRPVEVWKLYFTHPQDVPAIRDKIREHPAVIDIYEYDIPFAKRYLIDKGLVPMEGDEELKMLAFAIATLYHEGEEFAEGPILMISYADEEGARVITWKNVDLPYVDVVSTEREMIKRFLRVVKEKDPDVLITYNGDNFDFAYLKKRCEKLGINFALGRDGSEPKIQRMGDRFAVEVKGRIHFDLYPVIRRTINLPTYTLEAVYEAVFGQPKEKVYAEEITTAWETGENLERVARYSMEDAKVTYELGKEFLPMEAQLSRLIGQSLWDVSRSSTGNLVEWFLLRKAYERNELAPNKPDEKELARRRQSYEGGYVKEPERGLWENIVYLDFR chain 2: SLYPSIIITHNVSPDTLNREGCKEYDVAPQVGHRFCKDFPGFIPSLLGDLLEERQKIKKKMKATIDPIERKLLDYRQRAIKILAN chain 3: SYYGYYGYACARWYCKECAESVTAWGREYITMTIKEIEEKYGFKVIYSDTDGFFATIPGADAETVKKKAMEFLKYINAKLPGALELEYEGFYKRGFFVTKKKYAVIDEEGKITTRGLEIVRRDWSEIAKETQARVLEALLKDGDVEKAVRIVKEVTEKLSKYEVPPEKLVIHEQITRDLKDYKATGPHVAVAKRLAARGVKIRPGTVISYIVLKGSGRIGDRAIPFDEFDPTKHKYDAEYYIENQVLPAVERILRAFGYRKEDLRYQKTRQVGLSAWLKPKGT | 96 ± 21 | 8.3 ± 0.6 | 90000 ± 20000
